# According to the DeepSol protein solubility set:
# Assay: soluble on expression in E. coli; label from the status in PepcDB or PDB records
row,Sequence,soluble on expression in E. coli
1,MGSDKIHHHHHHAAPAPQAPALPANLTTRTWVLTDLAPGGKLRRVTGERPTLTWTVQPGGLQLSGSTGCNTYRGPATVTGQQLKVSALATTRRGCAPTQAQQENDFLTLLRGASHYRLSGQTLTVYAASTARLVFTAAPGGSMTTPSNTPAGANTPTGTTLKAAQLAGDWQLTDLREGGQAVTLPADAPFTFTASGTNTLRLSGMAGCNRLMGEVTLSGAGLTFGPLAATRMACEDMTAEQALSRVLQGSGQVTLKGDTLTWHRSGGEVVLTRRAPAATTADLSGSYRLLSVNGTAADARRTVSLTFKAGQVGGFDGCNSFGGEYSLDKAGHLTAGNLVTTLRACPDQLDQPILTALLGQAPTVQLRGRTLTLDAGGERWVFERE,not soluble
2,YSFIGSPVFSREFNISEMREYYLSFFEARGHTRINRYPVVARWRDDIYLTIASIADFQPFVTSGQVPPPANPLTISQPCIRLNDLDSVGRSGRHLTNFEMMAHHAFNRRDNEIYWKEHTLELCDELLNSLKVNPLAVTYKEEPWAGGGNAGPCVEVIVHGLELATLVFMDLKTDKKGDIEIKGETYSKMDNYIVDTGYGLERFVWASRGSPTIYDALFPGIVNELMGLAGIEHELNDSEYANI,not soluble
3,MEIQDYTDSEFKHALARNLRSLTRGKKSSKQPIAILLGGQSGAGKTTIHRIKQKEFQGNIVIIDGDSFRSQHPHYLELQQEYGKDSVEYTKDFAGKMVESLVTKLSSLGYNLLIEGTLRTVDVPKKTAQLLKNKGYEVQLALIATKPELSYLSTLIRYEELYIINPNQARATPKEHHDFIVNHLVDNTRKLEELAIFERIQIYQRDRSCVYDSKENTTSAADVLQELFFGEWSQVEKEMLQVGEKRLNELLEK,soluble
4,MGSDKIHHHHHHMSLSRINIGSFRNITSASLQPCDGLNLIYGQNGSGKTSILEAIYFLGMGRSFRSHLSQRVINNDDDKLTLFAHLIDADRDCKIGLRRHRSGEIEVKIDGEKVKRLSTLAETLPIQVITPESFSLLFEGPKARRQFIDWGAFHSDPHFYQAWVNTRKVLKQRNQLLRNQSSYNQIQFWDKELVRYAEQVTDIRNQYVDSLNVLLKGIIGVFLPRIDIKVSFTRGWDSKTDFAQLLENQYSRDLAAGNTGSGPHKADLRLRVGNLPAQDALSRGQLKLLVCALRIAQGKLLKQQLDKNSIYLVDDLPSELDAQHRQLLLQLLTETGAQIFVTAIDPQAIVDSLSSPPNRMFHVEQGLVTVIE,not soluble
5,MPAHRSDPTSSVIELNDVVFCWPGASSPTLDIAHLQIARGEHLFVKGPSGCGKSTLLSLLTGINTATQGVVSLLGSDLSRLSASQRDRFRADHIGYIFQQFNLLPYLSVLDNVTLPCHFSALRKQQVDGPLSHKAQSLLERLHLPSALLNKPVTELSIGQQQRVAAARALMGEPQLIIADEPTSALDYDNREAFIALLREEAERVGSTLVFVSHDPTLEKLFERSVHLPTLNRAGGWQ,not soluble
6,MHLCGVDYYQIDKQGSCKFRFKATQFYRALKNNKVSLRGIKPKDDGTTGQKLQVIPLLEMLISPGVRICDGGKFYNLQYEKAIRSGKMIVALTCKENNKKYVPQSLLSLINQPRKSQSKSLTESHEVIKISKSELNSTSVIEVYDKF,not soluble
7,MDDHGRTPSTNQPILYVLDTNVLIHDPNALLNFEEHHVAIPMTVLEELDKLKAGKHSVAAECRQAIRLIDKTLGEASPEEVEKGVPIDRGTGVFKGFLSILMSKREEPNSLLPEHLNDNIIINQLIDLHARNKDLSVVLVTKDINMRLKARACGIDAEDYSTDQLVDDVSLLSRGYHDMTGSFWDRVNKVDTRQERGRTWHRVQLNEMLPAVHINEFIVDEQGFVGWIKGVKNDELLILDMHQEPLLHQEAWGLKPRDIYQGLALFALLDPDIHLVNLSGPAGSGKTILALAAAIEQTMVTKRYRRIIATRSVQGLDQEIGFLPGTEAEKMEPWLGAITDNLEALHMDDENTHGSVDYILSKVPLQFKSLNYIRGRSFQQSLILIDECQNLTPHQMKTIITRAGAGSKVVCLGNLAQIDTPYLSATSSGLTYLTERFKDFPNGVHLTLQGVPRSILAEYAESHL,soluble
